To fix the notation:
B1: antibody 382 (antibody, V domains shown)
VH: QVQLVESGGGVVQPGRSLRLSCAASGFTFSNYGMHWVRQAPGKGLEWMTVISFDGRNKYYADSVKGRFTISRDNSKNTLFLQMNSLTTEDTALYFCASGRRPRYSSGWSFDYWGQGTLVTVSS
VL: DIQMTQSPSSLSASVGDRVTITCQASQDIGNYLNWYQQKLGKAPNLLIYDASNLETGVPSRFSGSGSGTDFTFTINSLQPEDTATYYCQQYDDPSITFGQGTRLEIK
B2: antibody 374 (antibody, V domains shown)
VH: QVQLQESGPGLVKPSGTLSLTCAVSGGSISSSKWWSWVRQPPGKGLEWIGEIYHSGSTNYNPSLKSRVTISVDKSKNQFSLKLSSVTAADTAVYYCARRELGEGTFTYWGQGTLVTVSS
VL: not shown
B3: antibody 304 (antibody, V domains shown)
VH: EVQLLESGGGLVQPGGSLRLSCAASGFTFSTYAMSWVRQAPGKGLEWVSAISGSGGSTYYADSVKGRFTISRDNSKNTLYLQMNSLRAEDTAVYYCASGYSPDYWGQGTLVTVSS
VL: AIQMTQSPSSLSASVGDRVTITCRASQGIRNDLGWYQQKPGKAPKLLIYAASSLQSGVPSRFSGSGSGTDFTLTISSLQPEDFATYYCLQDYNYPRTFGQGTKVEIK
B4: antibody 383 (antibody, V domains shown)
VH: EVQLVESGGGLVQPGGSLRLSCAASGFTFSSYDMHWVRQATGKGLEWVSTIGTAGDTYYPGSVKGRFTISRENAKNSLYLQMNSLRAGDTAVYYCARVAYSSSFVYWYFDLWGRGTLVTVSS
VL: DIQMTQSPSSLSASIGDRVTITCRASQSISSYLNWYQQKPGKAPNLLIYAASSLQSGVPSRFSGSGSGTDFTLTISSLQPEDFATYYCQQSYTTPLYTFGQGTKLEIK
B5: antibody 436 (antibody, V domains shown)
VH: QVQVVESGGGVVQPGRSLRLSCAASGFTFSSYAMHWVRQAPGKGLEWVAVISYDGNNEYYVDPVKGRFTISRDNSKNTLYLQMNSLRAEDTALYYCATSREAIVVGGILDYWGQGTLVTVSS
VL: DIQMTQSPSSLSASVGDRVTITCQASHDINNFLNWYQQKPGQAPKLLIYDASNLETGVPSRFSGSGSGTDFTFTISSLHPEDVATYYCQQYDGLPRYVTFGQGTKLEIR
B6: antibody 464 (antibody, V domains shown)
VH: QVQLVQSGAEVKKPGASVKVSCKVSGYTLTELSMHWVRQAPGKGLEWMGGFDPEDGETIYAQKFQGRVTMTEDTSTDTAYMELSSLRSEDTAVYYCATARAFGVANWFDPWGQGTLVTVSS
VL: QSVLTQPPSASGTPGQRVTISCSGSSSNIGSNYVYWYQQLPGTAPKLLIYRNNQRPSGVPDRFSGSKSGTSASLAISGLRSEDEADYYCAAWDDSLSGLYVFGTGTKVTVL
B7: antibody 499 (antibody, V domains shown)
VH: EVQLVESGGGLVKPGGSLRLSCAASGFTFSSYSMNWVRQAPGKGLEWVSSISSSSSYIYYADSVKGRFTISRDNAKNSLYLQMNSLRAEDTAVYYCARAPAGIVVGPDYWGQGTLVTVSS
VL: NFMLTQPHSVSESPGKTVTISCTGSSGSIASNYVQWYQQRPGSAPTTVIFEDNQRPSGVPDRFSGSIDSSSNSASLTISGLKTEDEADYYCQSYHSSNPHVVFGGGTKLTVL
B8: antibody 524 (antibody, V domains shown)
VH: QVQLVESGGGVVQPGRSLRLSCAASGFTFSSYAMHWVRQAPGKGLEWVAVISYDGSNKYYADSVKGRFTISRDNSKNTLYLQMNSLRAEDTAVYYCAKAGGGSYYRGFDYWGQGTLVTVSS
VL: QSVLTQPPSVSAAPGQKVTISCSGSNSNIGNNYVSWYQQLPGSAPKLLIYDNDKRPSGIPDRFSGSKSGTSATLGITGLQTGDEADYYCGAWDSSLTALVFGGGTKLTVL
B9: antibody 493 (antibody, V domains shown)
VH: EVQLVESGGGLIQPGRSLRLSCAASGFTVSITYMSWVRQAPGKGLEWVSLIYSGGSSYYADSVKGRFTISRDNSKNTLYLQMNSLRAEDTAVYYCATTMVRGVIISYYYGMDVWGQGTTVTVSS
VL: QSALTQPASVSGSPGQSITISCTGTSSDVGGYNYVSWYQQHPGKAPKLMIYEVSNRPSGVSNRFSGSKSGNTASLTISGLQAEDEADYYCSSYTSSSTLVFGGGTKLTVL
B10: antibody 521 (antibody, V domains shown)
VH: QVQLVESGGGVVQPGRSLRLSCAASGFTFSSYGMHWVRQAPGKGLEWVAVIWYDGSNKYYADSVKGRFTISRDNSKNTLYLQMNSLRAEDTAVYYCAREGNDYGDYGEWELLGYFDYWGQGTLVTVSS
VL: SYELTQPPSVSVSPGQTARITCSGDALPKKYAYWYQQKSGQAPVLVIYEDSKRPSGIPERFSGSSSGTMATLTISGAQVEDEADYYCYSTDSSGNHRRVFGGGTKLTVL
B11: antibody 495 (antibody, V domains shown)
VH: QITLKESGPTLVKPTQTLTLTCTFSGFSLSTSGVGVGWIRQPPGKALEWLALIYWDDDKRYSPSLKSRLTITKDTSKNQVVLIMTNMDPVDTATYYCAHRDSSSWFDLDAFDIWGQGTMVIVSS
VL: QSVLTQPPSVSEAPRQRVTISCSGSSSNIGNNAVNWYQQLPGKAPKLLIYYDDLLPSGVSDRFSGSKSGTSASLAISGLQSEDEADYYCAAWDDRLNGPVFGGGTKLTVL
B12: antibody 505 (antibody, V domains shown)
VH: EVQLVESGGGLVKPGGSLRLSCAASGFTFSSYSMNWVRQAPGKGLEWVSSISSSSSYIYYADSVKGRITISRDNAKNSLYLQMNSLRAEDTAVYYCAREYPNFRAEWLLSPYGMDVWGQGTTVTVSS
VL: QSALTQPASVSGSPGQSITISCTGTSSDVGSYNLVSWYQQHPGKAPKLMIYEVSKRPSGVSNRFSGSKSGNTASLTISGLQAEDEADYYCCSYAGSSTSVKVFGTGTKVTVL
B13: antibody 490 (antibody, V domains shown)
VH: QVQLQESGPGLVKPSGTLSLTCAVSGGSISSSNWWSWVRQPPGKGLEWIGELYHSGSTNYNPSLKSRVTISVDKSKNQFSLKLSSVTAADTAVYYCARVGPYYYDSSGYYNYFDYWGPGTLVTVSS
VL: EIVLTQSPATLSLSPGERATLSCRASQSVSSYLAWYQQKPGQAPRLLIYDASNRATGIPARFSGSGSGTDFTLTISSLEPEDFAVYYCQQRSNWPPGITFGQGTRLEIK
B14: antibody 551 (antibody, V domains shown)
VH: EVQLVESGGGLVQPGGSLRLSCAASGFTFSSYWMSWVRQAPGKGLEWVANINQDGSDKYYVDSVKGRFTISRDNAKNSLYLQMNSLRAEDTAVYYCARAPGWAAAPTFDYWGQGTLVTVSS
VL: QSALTQPRSVSGSPGQSVTISCTGTSSDVGGYNYVSWYQQHPGKAPKFMIYDVSKRPSGVPDRFSGSKSGNTASLTISGLQAEDEADYYCCSYAGSYTLVVFGGGTKLTVL
B15: antibody 270 (antibody, V domains shown)
VH: QVQLVQSGAEVKRPGTSVKVSCKTSGYTFTDHFIHWVRQAPGRRLEWMGWINPNSGGTNYAQNFQGRVTMTRDTSITTAYMDLTRLTSDDTAIYYCAREAAYGSGNLNWFDPWGQGTRVTVSS
VL: NFMLTQPHSVSESPGKTVTISCTGSSGSIAANYVHWYQQRPGSAPRTVIYEDNQRPSGVPDRFSGSIDSSSNSASLTISGLKTEDEADYYCQSYDGDSWVFGGGTKLTVL
B16: antibody 259 (antibody, V domains shown)
VH: EVQLVQSGAEVKKPGATVKISCKVSGYTFTDYYMHWVQQAPGKGLEWMGLVDPEDGETIYAEKFQGRVTITADTSTDTAYMELSSLRSEDTAVYYCATDLLSWKLYCSGGSCPQMDVWGQGTTVTVSS
VL: B3 VL with A1D, L46R, D70E, D91H, Y92N, N93S, R96Q, V104L
B17: antibody 267 (antibody, V domains shown)
VH: EVHLVQSGAEMKKPGATVKISCKVSGNTFIDHYIQWVQQAPGKGFEWMGLVDPEDGETIYAEKFQGRVTITADTSRDTAYMELSSLKSEDTAVYYCGTHGDYLDYWGQGTLVTVSS
VL: FYELTQPSSVSVSPGQTALITCSGDVVAKKYARWFQQKAGQAPVLVIYKDTERPSGIPERISGSSSGTTVTLTISGAQVEDEADYYCYSATDNNLVFGGGTKVTVL

Residue numbers refer to the chain shown, from its start. Values joined by “and” are separate entries in the source; they are usually repeats but may differ in a detail not shown here. Identical values can stand only once. Where only a bound is given, the exact number is not on record here.

The target of one experiment is SARS-CoV-2 spike (S) protein (SARS-CoV-2), P0DTC2.
Experiment: not given
To be noted: remark: other sources report otherwise.
One may read the Kd as the equilibrium constant for the complex coming apart. A word on the koff: it is a measure of how fast the partners let go of each other. The low end stands for slow dissociation, the high end for fast dissociation. The term kon denotes a measure of how fast the partners come together. Lower therefore signals slower complex formation. As to B1, the Kd turned out to be 11.2 nM, the koff was 0.00134 s⁻¹ and the kon was determined as 120000 M⁻¹ s⁻¹.

In turn, B2 had a Kd of 1.58 nM, a koff of 7.86e-05 s⁻¹ and a kon of 49600 M⁻¹ s⁻¹.

As to B3, the Kd amounted to 3.14 nM, the koff is 0.000274 s⁻¹ and the kon was determined as 87300 M⁻¹ s⁻¹.

Molecule B4 had a Kd of 0.772 nM, a koff of 7.09e-05 s⁻¹ and a kon of 91800 M⁻¹ s⁻¹.

In the next experiment the target is SARS-CoV-2 spike protein (SARS-CoV-2), P0DTC2.
Experiment: not given
Particulars: remark: other sources report otherwise.
In turn, B5 yielded a Kd of 19.4 nM, a koff of 0.000352 s⁻¹ and a kon of 18200 M⁻¹ s⁻¹.

The molecule B6 yielded a Kd of 4.58 nM, a koff of 0.000512 s⁻¹ and an on-rate constant (kon) of 112000 M⁻¹ s⁻¹.

A further experiment has the same target. Kind of experiment: HT-SPR, Carterra LSA; mAb coupled to chip, antigen injected; 1:1 fit. Particulars: remark: other sources report otherwise.
In turn, B7 had a Kd of 0.297 nM, a koff of 1.88e-05 s⁻¹ and a kon of 63300 M⁻¹ s⁻¹.

In turn, B8 had a Kd of 34.6 nM, a koff of 0.00272 s⁻¹ and a kon of 78600 M⁻¹ s⁻¹.

B9 had a Kd of less than 0.133 nM and a koff of less than 1e-05 s⁻¹.

Regarding B10, the Kd came out at 9.9 nM, the koff is 0.000299 s⁻¹ and the kon was found to be 30200 M⁻¹ s⁻¹.

On to B11, for which the Kd came out at 0.0718 nM, the koff turned out to be 1.55e-05 s⁻¹ and the kon stood at 216000 M⁻¹ s⁻¹.

In another experiment the target is SARS-CoV-2 full length spike protein, wild type, expressed on the surface of CHO cells (SARS-CoV-2), P0DTC2.
Experiment: not given
Particulars: remark: other sources report otherwise.
On to B7, for which the median fluorescence fold over isotype control (fold over isotype) is 1.35 and 0.9.

Consider B12, for which the median fluorescence fold over isotype control (fold over isotype) stood at 1.55.

For B8, the median fluorescence fold over isotype control (fold over isotype) was 0.58 and 0.55.

Consider B13, for which the median fluorescence fold over isotype control (fold over isotype) was 1.07 and 1.28 and 1.08.

Turning to B9, the median fluorescence fold over isotype control (fold over isotype) is 1.26 and 1.1.

With B10, the median fluorescence fold over isotype control (fold over isotype) is 2.42 and 0.86.

Take B11: the median fluorescence fold over isotype control (fold over isotype) is 1.23 and 0.83.

The target of another experiment is SARS-CoV-2 full length spike protein (wild-type), conjugated to optically encoded beads (SARS-CoV-2), P0DTC2.
Experiment: not given
Particulars: remark: other sources report otherwise.
With B12, the median fluorescence fold over isotype (fold over isotype) came to 658.

Molecule B14 gave a median fluorescence fold over isotype (fold over isotype) of 649.

The target in the next experiment is SARS-CoV-2 full length spike protein (wild type) (SARS-CoV-2), P0DTC2.
Experiment: not given
To be noted: remark: other sources report otherwise.
As to B15, the binding signal, bead assay (fold over isotype) was found to be 305.

Consider B3, for which the binding signal, bead assay (fold over isotype) was 1.22 and 1.17 and 1.09.

In turn, B16 gave a binding signal, bead assay (fold over isotype) of 275.

With B17, the binding signal, bead assay (fold over isotype) came to 312.

These data come from patent publication US20210292393A1.
